How the values were obtained:
[1] = target: glutathione (GSH) immobilized on dendron-modified controlled pore glass, sample E1 (Fmoc-(3)acid dendron); assay: pull-down from lysate with E1 beads, SDS-PAGE densitometry, relative to GST on E1
glutathione Sepharose-4B = assay: pull-down from lysate with glutathione Sepharose-4B, SDS-PAGE densitometry, relative to GST on Sepharose-4B
[2] = target: glutathione (GSH) immobilized on dendron-modified controlled pore glass, sample E3 (Fmoc-(9)acid dendron); assay: pull-down from lysate with E3 beads, SDS-PAGE densitometry, relative to GST on E3
[3] = target: glutathione (GSH) immobilized on dendron-modified controlled pore glass, sample E3 (Fmoc-(9)acid dendron); assay: GST captured on beads, sample weight adjusted to the same number of GSH, SDS-PAGE densitometry
[4] = target: glutathione (GSH) immobilized on dendron-modified controlled pore glass, sample E1 (Fmoc-(3)acid dendron); assay: as above

| relative binding capacity (GST on the same matrix set at 100%) [1] [%] | binding efficiency (relative, GST on the same matrix set at 100%) (glutathione Sepharose-4B) [%] | relative binding capacity (GST on the same matrix set at 100%) [2] [%] | Percentage of ligand utilization (%) [3] [%] | Percentage of ligand utilization (%) [4] [%] | Substance |
| --- | --- | --- | --- | --- | --- |
| 22 | 17 | 23 | – | – | GST-Munc-18 fragment (98 kDa) (from UniProt P08515 1-218) |
| 92 | 104 | 85 | – | – | GST-PX^p47 (41 kDa), GST fused to the PX domain of p47^phox (from UniProt P08515 1-218) |
| – | – | – | 31 | 29 | glutathione S-transferase (GST) (28 kDa) (from UniProt P08515 1-218) (enzyme) |

Source: US20050037413A1
